According to PMC12314560:

Molecular target: Angiotensin-converting enzyme 2 (recombinant human ACE2 protein-mFc Tag) (human) (UniProt Q9BYF1)
Assay: BLI

Chain of UniProt Q9BYF1 (Q9BYF1 18-740): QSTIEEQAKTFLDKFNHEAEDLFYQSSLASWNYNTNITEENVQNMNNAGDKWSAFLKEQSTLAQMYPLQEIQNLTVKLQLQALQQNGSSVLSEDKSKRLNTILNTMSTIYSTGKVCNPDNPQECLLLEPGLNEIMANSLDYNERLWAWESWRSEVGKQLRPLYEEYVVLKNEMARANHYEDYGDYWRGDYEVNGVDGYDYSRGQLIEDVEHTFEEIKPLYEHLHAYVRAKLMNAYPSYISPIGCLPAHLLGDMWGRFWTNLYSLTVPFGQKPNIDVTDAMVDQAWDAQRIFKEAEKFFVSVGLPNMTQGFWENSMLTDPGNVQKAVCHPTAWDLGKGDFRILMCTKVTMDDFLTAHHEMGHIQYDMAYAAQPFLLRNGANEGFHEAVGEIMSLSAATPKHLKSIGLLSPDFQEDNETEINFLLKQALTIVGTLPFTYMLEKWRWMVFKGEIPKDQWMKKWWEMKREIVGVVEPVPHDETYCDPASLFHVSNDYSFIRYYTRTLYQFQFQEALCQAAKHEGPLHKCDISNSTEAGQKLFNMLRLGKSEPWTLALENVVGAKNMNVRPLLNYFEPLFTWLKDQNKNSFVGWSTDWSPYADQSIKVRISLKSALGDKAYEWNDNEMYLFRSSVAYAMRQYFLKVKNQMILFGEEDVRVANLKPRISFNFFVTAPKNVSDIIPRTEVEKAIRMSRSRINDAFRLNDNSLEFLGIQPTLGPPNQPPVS

Beta S1 protein (domain or fragment)
Kd: 0.472 nM
